This note sets out measurements from PMC12533369, “Citrullination of AKT2 Catalyzed by PAD1 Facilitates the Maintenance of Stemness Characteristics of Ovarian Cancer Stem‐Like Cells in Ovarian Cancer” (Advanced Science, 2025).

The assay has as its target T1, GST-tagged PAD1 (human, UniProt Q9ULC6 1-663).
T1 construct: peptidylarginine deiminase 1 (PAD1), recombinant human; also called GST-PAD1; recombinant human PAD1; source: recombinant
T1 sequence (looked up): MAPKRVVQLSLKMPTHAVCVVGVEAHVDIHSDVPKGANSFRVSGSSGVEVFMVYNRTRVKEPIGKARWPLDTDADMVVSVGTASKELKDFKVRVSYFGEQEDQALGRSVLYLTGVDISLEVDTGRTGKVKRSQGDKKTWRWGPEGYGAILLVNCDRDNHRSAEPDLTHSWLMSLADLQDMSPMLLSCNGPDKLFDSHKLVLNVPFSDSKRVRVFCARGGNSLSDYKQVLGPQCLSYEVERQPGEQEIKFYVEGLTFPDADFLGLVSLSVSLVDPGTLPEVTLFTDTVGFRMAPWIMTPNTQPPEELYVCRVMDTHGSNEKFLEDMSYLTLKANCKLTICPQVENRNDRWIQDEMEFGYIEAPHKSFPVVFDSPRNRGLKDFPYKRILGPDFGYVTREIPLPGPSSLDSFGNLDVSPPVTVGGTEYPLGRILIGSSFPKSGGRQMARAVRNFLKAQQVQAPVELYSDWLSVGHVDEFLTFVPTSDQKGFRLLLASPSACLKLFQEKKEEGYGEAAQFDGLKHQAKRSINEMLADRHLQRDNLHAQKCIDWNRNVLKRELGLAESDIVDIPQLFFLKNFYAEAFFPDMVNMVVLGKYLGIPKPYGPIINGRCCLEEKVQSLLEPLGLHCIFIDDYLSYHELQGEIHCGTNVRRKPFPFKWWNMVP
Kind of assay: pull-down; GST pull-down: purified His-tagged AKT2 (full length or truncated) incubated with GST-tagged PAD1 or GST alone. The following applies: both partners purified.

B1: His-tagged full-length AKT2 (enzyme, UniProt P31751 1-481, looked up)
chain: MNEVSVIKEGWLHKRGEYIKTWRPRYFLLKSDGSFIGYKERPEAPDQTLPPLNNFSVAECQLMKTERPRPNTFVIRCLQWTTVIERTFHVDSPDEREEWMRAIQMVANSLKQRAPGEDPMDYKCGSPSDSSTTEEMEVAVSKARAKVTMNDFDYLKLLGKGTFGKVILVREKATGRYYAMKILRKEVIIAKDEVAHTVTESRVLQNTRHPFLTALKYAFQTHDRLCFVMEYANGGELFFHLSRERVFTEERARFYGAEIVSALEYLHSRDVVYRDIKLENLMLDKDGHIKITDFGLCKEGISDGATMKTFCGTPEYLAPEVLEDNDYGRAVDWWGLGVVMYEMMCGRLPFYNQDHERLFELILMEEIRFPRTLSPEAKSLLAGLLKKDPKQRLGGGPSDAKEVMEHRFFLSINWQDVVQKKLLPPFKPQVTSEVDTRYFDDEFTAQSITITPPDRYDSLGLLELDQRTHFPQFSYSASIRE
notes: AKT2, full length; whether 'human' also covers AKT2 is not clear; also called His-AKT2 (full length); source: purified
With B1, the binding result was “binds”.

B2: His-AKT2 (kinase domain) (domain or fragment, UniProt P31751 152-481, looked up)
chain: FDYLKLLGKGTFGKVILVREKATGRYYAMKILRKEVIIAKDEVAHTVTESRVLQNTRHPFLTALKYAFQTHDRLCFVMEYANGGELFFHLSRERVFTEERARFYGAEIVSALEYLHSRDVVYRDIKLENLMLDKDGHIKITDFGLCKEGISDGATMKTFCGTPEYLAPEVLEDNDYGRAVDWWGLGVVMYEMMCGRLPFYNQDHERLFELILMEEIRFPRTLSPEAKSLLAGLLKKDPKQRLGGGPSDAKEVMEHRFFLSINWQDVVQKKLLPPFKPQVTSEVDTRYFDDEFTAQSITITPPDRYDSLGLLELDQRTHFPQFSYSASIRE
notes: AKT2 residues 152-481, the truncated variant that the text calls the kinase domain; also called His-tagged AKT2 (152–481 aa); source: purified
On to B2, for which the binding result was “binds”.
